Consider two molecules from US20220249563A1 (LEGEND BIOTECH IRELAND, published 2022).

The test addresses T1, extracellular domain of human DLL3 protein (aa27-466) having an N-terminal FLAG tag (AdipoGen, AG-40B-0151) (human, UniProt Q9NYJ7 27-466).
T1 construct: range 27-466; also called DLL3 ECD protein
T1 sequence (looked up): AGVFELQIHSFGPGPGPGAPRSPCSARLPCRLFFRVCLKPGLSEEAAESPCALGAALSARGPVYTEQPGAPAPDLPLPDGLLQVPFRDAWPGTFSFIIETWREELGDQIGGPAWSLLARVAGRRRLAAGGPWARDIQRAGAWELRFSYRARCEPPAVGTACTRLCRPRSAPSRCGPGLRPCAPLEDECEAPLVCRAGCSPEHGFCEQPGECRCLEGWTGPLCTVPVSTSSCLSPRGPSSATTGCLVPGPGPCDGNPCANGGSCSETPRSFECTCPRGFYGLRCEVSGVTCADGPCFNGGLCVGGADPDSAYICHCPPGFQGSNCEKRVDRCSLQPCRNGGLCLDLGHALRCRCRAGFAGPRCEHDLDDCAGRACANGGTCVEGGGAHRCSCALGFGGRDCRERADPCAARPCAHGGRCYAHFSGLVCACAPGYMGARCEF
Kind of test: SPR (Biacore), same procedure as for the HCAbs, human DLL3 as analyte. In general terms: Surface plasmon resonance follows binding to a sensor surface in real time, without labels.

What is called Kd is the equilibrium constant for the complex coming apart. The low end stands for tighter binding, the high end for weaker binding. As a reminder, the koff is a measure of how fast the partners let go of each other. Read a high koff as a short-lived complex. Usually kon stands for the second-order rate constant of association.

B1: AS56788 scFv (scFv, V domains shown)
VH: EVQLVESGGGLVQPGGSLRLSCAASGFNISSYSMHWVRQAPGKGLEWVAYISSYYGYTYYADSVKGRFTISADTSKNTAYLQMNSLRAEDTAVYYCARYSYYYGMDYWGQGTLVTVSS
VL: DIQMTQSPSSLSASVGDRVTITCRASQSVSSAVAWYQQKPGKAPKLLIYSASSLYSGVPSRFSGSRSGTDFTLTISSLQPEDFATYYCQQHYAPSLITFGQGTKVEIK
notes: also called A556788
Regarding B1, the affinity, expressed as Kd, was 23 nM; the koff was 0.003 s⁻¹; the kon was found to be 130000 M⁻¹ s⁻¹.

B2: AS56704 scFv (scFv, V domains shown)
VH: EVQLVESGGGLVQPGGSLRLSCAASGFNISSSYMHWVRQAPGKGLEWVAYIYPSYGYTSYADSVKGRFTISADTSKNTAYLQMNSLRAEDTAVYYCARGGYYYHGMDYWGQGTLVTVSS
VL: DIQMTQSPSSLSASVGDRVTITCRASQSVSSAVAWYQQKPGKAPKLLIYSASSLYSGVPSRFSGSRSGTDFTLTISSLQPEDFATYYCQQASWSPITFGQGTKVEIK
notes: also called A556704
As for B2, the koff was determined as 0.000559 s⁻¹ and the kon worked out at 66000 M⁻¹ s⁻¹.
